Source: paper PMC2820149 (Journal of the American Chemical Society, 2010)

How the values were obtained:
[1] = test system: Pa0142 homologue (gi|44264246)
[2] = substrate: Nc1nccc(O)n1; assay: coupled ammonia assay; type: biochemical, Pseudomonas aeruginosa; settings: pH 8.0, 30 °C
[3] = substrate: Nc1nc2nc[nH]c2c(=O)[nH]1; assay: coupled ammonia assay; type: biochemical, Pseudomonas aeruginosa; settings: pH 8.0, 30 °C
[4] = substrate: Nc1nc2nc[nH]c2c(=O)[nH]1; assay: deamination kinetics; type: biochemical, Pseudomonas aeruginosa
[5] = substrate: Nc1nc2nc[nH]c2c(=O)[nH]1; assay: deamination kinetics; type: biochemical, Escherichia coli

Nc1nccc(=O)[nH]1 [compound 3, isocytosine]
Km [1]: 1600 ± 200 µM

Nc1nc2[nH]cnc2c(=O)[nH]1 [compound 2, guanine]
Km [1]: 1000 ± 100 µM

B1: Pa0142 (Pseudomonas aeruginosa PAO1) (protein)
chain: MSRTWIRNPLAIFTANGLDAAGGLVVEDGRIVELLGAGQQPAQPCASQFDASRHVVLPGLVNTHHHFYQTLTRAWAPVVNQPLFPWLKTLYPVWARLTPEKLELATKVALAELLLSGCTTAADHHYLFPGGLEQAIDVQAGVVEELGMRAMLTRGSMSLGEKDGGLPPQQTVQEAETILADSERLIARYHQRGDGARVQIALAPCSPFSVTPEIMRASAEVAARHDVRLHTHLAETLDEEDFCLQRFGLRTVDYLDSVGWLGPRTWLAHGIHFNAEEIRRLGEAGTGICHCPSSNMRLASGICPTVELEAAGAPIGLGVDGSASNDASNMILEARQALYLQRLRYGAERITPELALGWATRGSARLLGRSDIGELAPGKQADLALFKLDELRFSGSHDPLSALLLCAADRADRVMVGGAWRVVDGAVEGLDLAALIARHRAAASALIAG
Km [2]: 1800 ± 100 µM
kcat [2]: 3.9 ± 0.1 s⁻¹
Km [3]: 2600 ± 600 µM
kcat [3]: 3.3 ± 0.6 s⁻¹

B2: Pa0134 (Pseudomonas aeruginosa PAO1) (protein)
chain: MNDAVPAGNFVPPLILHSDHGGSAMSSSAHRGRILHFLGDPAKLGDKAWEYFEDGLLWIEHGHVRALDHATYLLPQLPADLPLEEHPQRLLLPGFVDCHVHYPQLGVIASYGTQLLDWLETHTFPAEQRFADAGYAAAQAELFLDELLRHGTTTALVFGTVHAVSAEAFFQAAQKRRLRMIAGKVLMDRNAPPALCDTAASGYAESRALIERWHGNGRLQYAVTPRFAPTSSPEQLAAAARLLDEYPGVYLHTHLSENLKEVAWVGELFPQAQDYLDVYHRAGLVGERSVFAHGIHLSERECRCLAHKNAALAHCPSSNLFIGSGLFDLGRAQQYGIRVGIGSDVGGGTSLSLLANLADAYKIQQLRGTSLDPFQALYLATLGGARALDLDGLVGNFLPGREADFVALDLAATPMIAQRMEHARGLADTLFVLNTLGDDRAVAETWVMGERRHVKG
Km [4]: 500 ± 90 µM
kcat [4]: 21 ± 2 s⁻¹

B3: b2883 (Escherichia coli K-12) (protein)
chain: MMSGEHTLKAVRGSFIDVTRTIDNPEEIASALRFIEDGLLLIKQGKVEWFGEWENGKHQIPDTIRVRDYRGKLIVPGFVDTHIHYPQSEMVGAYGEQLLEWLNKHTFPTERRYEDLEYAREMSAFFIKQLLRNGTTTALVFGTVHPQSVDALFEAASHINMRMIAGKVMMDRNAPDYLLDTAESSYHQSKELIERWHKNGRLLYAITPRFAPTSSPEQMAMAQRLKEEYPDTWVHTHLCENKDEIAWVKSLYPDHDGYLDVYHQYGLTGKNCVFAHCVHLEEKEWDRLSETKSSIAFCPTSNLYLGSGLFNLKKAWQKKVKVGMGTDIGAGTTFNMLQTLNEAYKVLQLQGYRLSAYEAFYLATLGGAKSLGLDDLIGNFLPGKEADFVVMEPTATPLQQLRYDNSVSLVDKLFVMMTLGDDRSIYRTYVDGRLVYERN
Km [5]: 150 ± 10 µM
kcat [5]: 12.5 ± 0.2 s⁻¹
